The supplement of paper PMC12042874
± gives the uncertainty stated by the source.

Assay: amyloid nucleation score (Sup35N fusion, yeast selection) (log enrichment); library NNK3; higher = more nucleation; inactive = no reads after selection
In short: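 In psi-negative yeast, Sup35N fusions carrying peptides of 20 random codons were induced with 100 μM copper sulfate for 24 hours. The cells then grew 7 days at 30°C on medium lacking adenine and uracil, and plasmid inserts from input and output were Illumina-sequenced, excluding sequences with under 100 input reads. Nucleation score is the DiMSum log enrichment of output over input reads, centred on the mode score of non-aggregating sequences.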
For LSVITVLNKKNRSDIMWIMI, the amyloid nucleation score was “inactive”. In the case of LSVSYTLALTALLRHRERVW, the amyloid nucleation score is reported as “inactive”. With LSWFIYWDKIRGWSKMTIGQ the amyloid nucleation score was “inactive”. In the case of LSWTYGRMGLRRLGGTGCYG, the amyloid nucleation score is reported as “inactive”. LSYSIRLLIFVRR showed an amyloid nucleation score of -0.293 ± 0.82. For LTASYSFVTTVGYSGLDLKV, the amyloid nucleation score was “inactive”. LTDRQVCNLIWNNAYGFLC showed an amyloid nucleation score of 0.257 ± 0.52. With LTKGLSAMLQFRWRAVFKNG the amyloid nucleation score was “inactive”. For LTKGQ, the amyloid nucleation score was “inactive”. With LTLCNPPTTRRTNATFLHCL the amyloid nucleation score was “inactive”. With LTLSYKQERTTARGKPVYLR the amyloid nucleation score was “inactive”. For LTNTLAYTVRKKTFQIGLLC, the amyloid nucleation score was “inactive”. In the case of LTSPREMAWCPHDTAICGTT, the amyloid nucleation score is reported as “inactive”. In the case of LTSVMIFVLVRIELPNQTLS, the amyloid nucleation score is reported as “inactive”. In the case of LTTESNLHVCVRRVGQLHLA, the amyloid nucleation score is reported as “inactive”. For LTYAALYLNGKMNVENARVV, the amyloid nucleation score was “inactive”. In the case of LTYGFFESNFGGCNRFCF, the amyloid nucleation score is reported as “inactive”. LVAFATWYNGWWVPRENEFR gave an amyloid nucleation score of 0.033 ± 0.47. In the case of LVALKSHDT, the amyloid nucleation score is reported as “inactive”. For LVCNRWPNCANCRCRP, the amyloid nucleation score was “inactive”. For LVFSTSLH, the amyloid nucleation score was “inactive”. In the case of LVIVRWNAVYTYIGFDF, the amyloid nucleation score is reported as “inactive”. Work on LVKIWDPSFNCFWMNGISNG yielded an amyloid nucleation score of 1.01 ± 0.14. For LVKNITPNAA, the amyloid nucleation score was “inactive”. For LVLRFTSIDFKLFRRHST, the amyloid nucleation score was “inactive”. LVLVQEKHRSRTAEFDHRLT gave an amyloid nucleation score of -0.186 ± 0.94. In the case of LVLYCF, the amyloid nucleation score is reported as “inactive”. For LVLYYCVTG, the amyloid nucleation score was “inactive”. In the case of LVMPYDMCCTRFQRAFSVCC, the amyloid nucleation score is reported as “inactive”. In the case of LVPFSNGCQSGPLTLIWYVA, the amyloid nucleation score is reported as 2.04 ± 0.068. With LVRYLENIRLRS the amyloid nucleation score was “inactive”. With LVVCTSAFIGMTDY the amyloid nucleation score was -0.532 ± 0.8. Substance LVVIWSRYSPRRNYPVTSNM has an amyloid nucleation score of 0.679 ± 0.24. For LVWDKVSVVWNSKEGVNVRI, the amyloid nucleation score was 0.256 ± 0.22. With LVWRTSINSLRMVEDNRDEV the amyloid nucleation score was “inactive”. With LVWWDGSEWTTWGVADIDWT the amyloid nucleation score was “inactive”. Work on LWLSDRNSLDSIAVCA yielded an amyloid nucleation score of 1.24 ± 0.093. For LWPAAQLLLKRE, the amyloid nucleation score was “inactive”. For LWPWFNCLRGRCGRIVCGWR, the amyloid nucleation score was “inactive”. For LWRWKYRAILKRYEKERVGR, the amyloid nucleation score was “inactive”. In the case of LWTALK, the amyloid nucleation score is reported as “inactive”. For LWVYAPFDSK, the amyloid nucleation score was “inactive”. With LYAKF the amyloid nucleation score was “inactive”. For LYCGDSI, the amyloid nucleation score was “inactive”. With LYEAVDRGLSRR the amyloid nucleation score was “inactive”. Substance LYFFYMPQTWVVSRCCGYNP has an amyloid nucleation score of 3.06 ± 0.079. Substance LYINVHLEEIIFSLALREK has an amyloid nucleation score of 1.71 ± 0.057. Work on LYLFMAYGVLGVLRQ yielded an amyloid nucleation score of 0.397 ± 0.42. Work on LYLIFFCLWSSQLDAQLFVL yielded an amyloid nucleation score of -0.217 ± 0.93. With LYRAIIIRRWFGNMGDFHKP the amyloid nucleation score was “inactive”. Work on LYTGYVLAIMYWAVLARENT yielded an amyloid nucleation score of -1.45 ± 2.5. For LYVFCTSY, the amyloid nucleation score was “inactive”. For LYVLWRLGKQCHTFWFFSSI, the amyloid nucleation score was 0.265 ± 0.44. With LYWATGLGVNFKFNLCLDDA the amyloid nucleation score was “inactive”. For LYWEPKLTSDFKRLDLRLVP, the amyloid nucleation score was “inactive”. For LYYKSLGRCRNYLYCSH, the amyloid nucleation score was 0.596 ± 0.12. In the case of LYYMKVIGTFRISEAILLYL, the amyloid nucleation score is reported as “inactive”. With MALHRFS the amyloid nucleation score was “inactive”. For MALLLDILMNNNFISIKGFI, the amyloid nucleation score was “inactive”. In the case of MASFSRHVCMYGTLNLSGNA, the amyloid nucleation score is reported as “inactive”. In the case of MCFEVLHACRYFVRHSSQRI, the amyloid nucleation score is reported as “inactive”. For MCGDCICVVSVMLAHAPKCS, the amyloid nucleation score was “inactive”. With MCMLIYCYAQSLVMKMDSHY the amyloid nucleation score was “inactive”. With MCNWMNNLADSGLSASSVQV the amyloid nucleation score was “inactive”. For MCQKQHQYQVTAIRTYMIRF, the amyloid nucleation score was “inactive”.
